Experiments:
[1] = molecular target: heat shock cognate 70 (hsc70; hsp70 isoform 8) (UniProt P63018); experiment: biotin-peptide streptavidin pull-down, LC-MS/MS; settings: reference: nonphospho-peptide
[2] = molecular target: annexin II (UniProt Q07936); experiment: biotin-peptide streptavidin pull-down, LC-MS/MS; settings: reference: nonphospho-peptide
[3] = molecular target: Heat Shock Protein 70 Isoform 2 (hsp70-2) (UniProt P14659); experiment: biotin-peptide streptavidin pull-down, LC-MS/MS; settings: reference: nonphospho-peptide
[4] = molecular target: Heat Shock Protein 70 Isoform 1 (hsp70-1); experiment: biotin-peptide streptavidin pull-down, LC-MS/MS; settings: reference: nonphospho-peptide; sites S261
[5] = molecular target: BiP (Grp78, hsp70 isoform 5) (UniProt P06761); experiment: biotin-peptide streptavidin pull-down, LC-MS/MS; settings: reference: nonphospho-peptide
[6] = molecular target: BiP (Grp78, hsp70 isoform 5) (UniProt P06761); experiment: biotin-peptide streptavidin pull-down, immunoblot; settings: reference: nonphospho-peptide; sites S256

Substance	other: label-free MS quantification vs no-peptide control (Table 2) ([1]; sites S261)	other: label-free MS quantification vs no-peptide control (Table 2) ([2]; sites S261)	other: label-free MS quantification vs no-peptide control (Table 2) ([3]; sites S261)	other: label-free MS quantification vs no-peptide control (Table 2) [4]	other: label-free MS quantification vs no-peptide control (Table 2) ([5]; sites S261)	other: label-free MS quantification vs no-peptide control (Table 2) ([1]; sites S256)	other: label-free MS quantification vs no-peptide control (Table 2) ([2]; sites S256)	other: label-free MS quantification vs no-peptide control (Table 2) ([3]; sites S256)	other: label-free MS quantification vs no-peptide control (Table 2) ([5]; sites S256)	binding against the reference [6]
aquaporin-2 (AQP2) COOH-terminal peptide COOH-terminal tail (from UniProt P34080) pS261 peptide	weaker; reference 5.70 ± 0.27	weaker; reference 3.19 ± 0.32	weaker; reference 4.17 ± 0.38	weaker; reference 3.41 ± 0.44	weaker; reference 2.13 ± 0.57					
aquaporin-2 (AQP2) COOH-terminal peptide COOH-terminal tail (from UniProt P34080) pS256 peptide						weaker; reference 5.70 ± 0.27	weaker; reference 3.19 ± 0.32	weaker; reference 4.17 ± 0.38	stronger; reference 2.13 ± 0.57	stronger

From PMC2693456
